# Experimental data from US20260356921 (published 2026).
# Target: SARS-CoV (2003) RBD (SARS-CoV, UniProt P59594)
# Test: BLI
binder,measurement,value
"VHH-Fc (antibody, V domains shown) VH: QVQLQESGGGLVQTGGSLRLSCAASGSFFSINDMGWYRQAPGKQRELVAMITGDDSTNYADSVKGRFTISRDNLKNTVYLQMNSLKPEDTALYYCNAEVKVIIWDSRFNYYWGQGTQVTVSS",Kd,13 nM
